In paper PMC2965674, “Functional Roles of the N- and C-Terminal Regions of the Human Mitochondrial Single-Stranded DNA-Binding Protein” (PLoS ONE, 2010):

Key:
[1] = molecular target: HsmtSSBΔN, deletion variant lacking the first 9 residues in the N-terminus of mature HsmtSSB (human); test: SEC + other: glycerol gradient velocity sedimentation; 12-30% glycerol gradients, 264,000 x g, 63 hr, 4°C, 35 mM Tris-HCl pH 7.5, 100 mM NaCl, 2 mM EDTA, 5 mM DTT; Superdex 75 gel filtration in the same buffer with 8% glycerol, 4°C; native mass calculated from the S value and the Stokes radius
[2] = molecular target: T1, HsmtSSBwt (mature human mitochondrial SSB) (Homo sapiens, UniProt Q04837 17-148); test: EMSA; 50 mM NaCl, 4 mM Mg2+; apparent Kd, protein as tetramer; 20 mM Tris-HCl pH 7.5, 1 mM DTT, 4 mM MgCl2, 50 mM NaCl, 36 fmol 48-mer in 20 µL, 20°C 10 min; 6% native PAGE; conditions: protein: recombinant; tags: none (untagged); chain copies: 4; label: 5'-32P; single strand
T1 sequence: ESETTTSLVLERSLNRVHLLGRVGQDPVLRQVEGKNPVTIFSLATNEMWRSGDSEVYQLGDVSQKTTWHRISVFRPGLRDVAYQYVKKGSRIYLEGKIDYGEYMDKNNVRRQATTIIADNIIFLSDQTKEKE

[3] = molecular target: T2, HsmtSSBΔC (Homo sapiens, UniProt Q04837 =M+17-141, internal_change); test: as above; conditions: protein: recombinant; tags: none (untagged); chain copies: 4; label: 5'-32P; single strand
T2 sequence: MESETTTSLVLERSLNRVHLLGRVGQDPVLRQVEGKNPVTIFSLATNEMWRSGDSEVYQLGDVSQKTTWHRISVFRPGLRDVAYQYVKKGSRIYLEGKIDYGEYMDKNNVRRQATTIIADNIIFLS

[4] = molecular target: T3, HsmtSSBΔN (Homo sapiens, UniProt Q04837 =M+26-148, internal_change); test: as above; conditions: protein: recombinant; tags: none (untagged); chain copies: 4; label: 5'-32P; single strand
T3 sequence: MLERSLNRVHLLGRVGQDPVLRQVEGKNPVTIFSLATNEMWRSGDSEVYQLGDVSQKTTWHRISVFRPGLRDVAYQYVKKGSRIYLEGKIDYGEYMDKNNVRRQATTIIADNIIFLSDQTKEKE

[5] = molecular target: T4, HsmtSSBΔNΔC (Homo sapiens, UniProt Q04837 =M+26-141, internal_change); test: as above; conditions: protein: recombinant; tags: none (untagged); chain copies: 4; label: 5'-32P; single strand
T4 sequence: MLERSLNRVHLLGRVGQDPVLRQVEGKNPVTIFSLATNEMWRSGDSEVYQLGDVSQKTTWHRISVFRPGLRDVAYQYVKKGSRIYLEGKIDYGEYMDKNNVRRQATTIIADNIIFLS

[6] = molecular target: the molecule itself; test: SEC + other: glycerol gradient velocity sedimentation; 12-30% glycerol gradients, 264,000 x g, 63 hr, 4°C, 35 mM Tris-HCl pH 7.5, 100 mM NaCl, 2 mM EDTA, 5 mM DTT; Superdex 75 gel filtration in the same buffer with 8% glycerol, 4°C; native mass calculated from the S value and the Stokes radius

“HsmtSSBΔN, deletion variant lacking the first 9 residues in the N-terminus of mature HsmtSSB (domain or fragment)” showed a stoichiometry N [1] of 4.

Work on GGACTATTTATTAAATATATTTAAGAACTAATTCCAGCTGAGCGCCGG (ssDNA) [48-mer ssDNA oligonucleotide] yielded a Kd [2] of roughly 5 nM, a Kd [3] of roughly 5 nM and a Kd [4] of roughly 5 nM. For the same molecule, the Kd [5] was roughly 5 nM.

B1: HsmtSSBΔC, deletion variant lacking the last 7 residues in the C-terminus of HsmtSSB (domain or fragment, human, UniProt Q04837 17-141, looked up)
chain: ESETTTSLVLERSLNRVHLLGRVGQDPVLRQVEGKNPVTIFSLATNEMWRSGDSEVYQLGDVSQKTTWHRISVFRPGLRDVAYQYVKKGSRIYLEGKIDYGEYMDKNNVRRQATTIIADNIIFLS
notes: human mtSSB, mature protein lacking its last 7 residues; numbers count on: the mature protein; Untagged; The reverse primer puts a new stop codon after codons that read ...D-N-I-I-F-L-S. A start methionine precedes the first mature residue
In the case of B1, the “stoichiometry N” value [6] is reported as 4.

B2: HsmtSSBΔNΔC, variant of HsmtSSB that lacks both termini (first 9 and last 7 residues of the mature protein) (domain or fragment, human, UniProt Q04837 26-141, looked up)
chain: LERSLNRVHLLGRVGQDPVLRQVEGKNPVTIFSLATNEMWRSGDSEVYQLGDVSQKTTWHRISVFRPGLRDVAYQYVKKGSRIYLEGKIDYGEYMDKNNVRRQATTIIADNIIFLS
notes: human mtSSB, mature protein lacking its first 9 and its last 7 residues; numbers count on: the mature protein; Untagged; Made with the forward primer of ΔN (new start methionine before L-E-R-S) and the reverse primer of ΔC (stop after ...F-L-S); source: E. coli BL21(DE3), pET-11a, untagged, purified (Blue Sepharose, phosphocellulose)
In the case of B2, the “stoichiometry N” value [6] is reported as 4.

B3: human mitochondrial single-stranded DNA-binding protein, mature wild type (HsmtSSBwt) (natural protein, UniProt Q04837 17-148, looked up)
chain: ESETTTSLVLERSLNRVHLLGRVGQDPVLRQVEGKNPVTIFSLATNEMWRSGDSEVYQLGDVSQKTTWHRISVFRPGLRDVAYQYVKKGSRIYLEGKIDYGEYMDKNNVRRQATTIIADNIIFLSDQTKEKE
notes: numbers count on: the mature protein; Untagged; The forward primer (CATATG GAGTCC...) puts a start methionine before the first mature residue; also called human mtSSB; source: E. coli BL21(DE3), pET-11a, untagged, purified (Blue Sepharose, phosphocellulose)
In the case of B3, the “stoichiometry N” value [6] is reported as 4.
